Assay results published in patent US20170349667A1 (ARGEN X B V, published 2017).
Where a chain is given by its changes, count along the chain named.

What was measured:
[1] = molecular target: T1, recombinant dimeric c-Met (R&D systems, 358-MT/CF) (human, UniProt P08581 25-932); test: competition ELISA: recombinant dimeric c-Met captured on the plate, mAb dilutions, then 25 ng/ml N-terminally biotinylated HGF as competitor, strep-HRP, 620 nm; % competition against the controls
T1 construct: bought protein; also called recombinant c-Met; Fc-Met; not shown: C-terminal Fc portion (captured with anti-human Fc) and a His tag (captured with anti-His)
Description: Competition with N-terminally biotinylated HGF for binding to immobilized c-Met was performed using an ELISA-based competition assay. Five μg/ml mouse anti-His antibodies (Serotech) was immobilized on a maxisorb plate and, after blocking with 1% casein in PBS for 2 h, 100 ng/ml recombinant dimeric c-Met was added and incubated for 1 h at room temperature. After washing, dilutions of the antibodies were added and allowed to bind to the captured c-Met for 30 minutes, before 25 ng/ml N-terminally biotinylated HGF (R&D systems, 294-HGN/CF) was added. Biotinylated HGF was incubated at room temperature for 1 h before washing. Horseradish-conjugated streptavidin (strep-HRP) was added and incubated for an additional hour. TMB was added and the plate read at 620 nm. An isotype control (hIgG1λ) was included as a control as well as murine 5D5 antibody. Competition was expressed as percentage competition as compared to the controls (strep-HRP only or hIgG1λ) and plotted against the concentration of antibodies. An IC₅₀ was calculated using GraphPad Prism (Table 10). Antibodies 13E6 and 20A11 only displaced HGF partially (about 50%), which may be related to the epitope these two mAbs recognize on the c-Met.

[2] = molecular target: human c-Met on cells (MKN-45, A549, HPAF, BxPC3) (human, UniProt P08581 25-1390); test: cell-based or functional assay
[3] = molecular target: T2, Decoy c-Met (extracellular domain of human c-Met) (human, Glycoprotein. In cells it is cleaved by furin after residue 307 into disulfide-linked alpha and beta parts; written here as one chain.); test: binding ELISA, human c-Met (Decoy)
T2 construct: construct after Basilico et al. 2008; also called Decoy Met; monomeric Decoy Met
T2 chain: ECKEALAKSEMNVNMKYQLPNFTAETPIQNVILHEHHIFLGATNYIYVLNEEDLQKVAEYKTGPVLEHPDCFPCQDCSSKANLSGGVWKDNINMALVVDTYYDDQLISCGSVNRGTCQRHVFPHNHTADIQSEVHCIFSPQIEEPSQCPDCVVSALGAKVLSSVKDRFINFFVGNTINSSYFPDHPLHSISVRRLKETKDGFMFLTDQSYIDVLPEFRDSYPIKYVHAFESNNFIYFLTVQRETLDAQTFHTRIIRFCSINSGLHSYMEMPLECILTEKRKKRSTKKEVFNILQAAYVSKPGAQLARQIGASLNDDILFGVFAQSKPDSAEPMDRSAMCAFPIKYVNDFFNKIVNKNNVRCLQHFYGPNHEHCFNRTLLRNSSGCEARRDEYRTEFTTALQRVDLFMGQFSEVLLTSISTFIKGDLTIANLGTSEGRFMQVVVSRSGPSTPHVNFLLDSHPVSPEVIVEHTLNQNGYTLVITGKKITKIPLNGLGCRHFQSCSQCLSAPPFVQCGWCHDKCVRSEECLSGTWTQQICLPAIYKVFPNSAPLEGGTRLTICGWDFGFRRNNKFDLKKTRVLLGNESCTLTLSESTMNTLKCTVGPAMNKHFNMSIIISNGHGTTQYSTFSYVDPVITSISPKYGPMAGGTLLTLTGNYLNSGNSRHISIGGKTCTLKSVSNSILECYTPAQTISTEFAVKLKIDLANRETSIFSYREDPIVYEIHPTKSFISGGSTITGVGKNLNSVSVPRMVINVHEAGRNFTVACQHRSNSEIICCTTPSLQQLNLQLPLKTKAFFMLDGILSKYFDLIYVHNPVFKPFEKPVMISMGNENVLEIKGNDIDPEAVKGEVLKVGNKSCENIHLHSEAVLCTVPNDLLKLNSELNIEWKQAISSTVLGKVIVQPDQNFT

[4] = molecular target: T3, HMet (human c-Met, control of Table 18) (human); test: ELISA, mAb coated at 2 µg/ml, c-Met added, streptavidin-HRP
T3 chain: T2 chain
Source text: (§1) An ELISA was run to investigate the binding of the mAbs to the different chimeras.

[5] = molecular target: llama-human c-Met chimera LS1 (aa1-98) (Llama glama; human); test: ELISA, mAb coated at 2 µg/ml, chimera added, streptavidin-HRP
Source text: as §1

[6] = molecular target: llama-human c-Met chimera LP6 (aa497-909) (human; Llama glama); test: as above
Source text: as §1

[7] = molecular target: llama-human c-Met chimera LP7*(aa523-909), T737I (human; Llama glama); test: as above
Source text: as §1

[8] = molecular target: T4, llama-human c-Met chimera L18 (aa540-909) (human; Llama glama); test: as above
T4 construct: label probably LI8
Source text: as §1

[9] = molecular target: T5, llama-human c-Met chimera L19 (aa572-909) (human; Llama glama); test: as above
T5 construct: label probably LI9
Source text: as §1

[10] = molecular target: T6, llama-human c-Met chimera L110 (aa608-909) (human; Llama glama); test: as above
T6 construct: label probably LI10
Source text: as §1

[11] = molecular target: T7, llama-human c-Met chimera L111 (aa634-909) (human; Llama glama); test: as above
T7 construct: label probably LI11
Source text: as §1

[12] = molecular target: T8, human c-Met ECD (aa 25-932) with His tag (human, Glycoprotein. Furin cleavage after residue 307 gives disulfide-linked alpha and beta parts; written here as one chain.); test: ELISA: 200 ng of recombinant c-Met ECD protein coated, mAb 1 h, HRP goat anti-human antibody, TMB, OD 620 nm
T8 construct: also called human c-Met (WT)
T8 chain: T2 chain
Description: 200 ng of the different chimeric recombinant cMet proteins were immobilized on maxisorb plates overnight at 4° C. After washing with PBS, the plates were blocked with 0.1% casein for 2 h at RT, before the mAbs were added and allowed to bind to the c-Met for 1 h at RT. After washing, HRP-conjugated goat anti-human antibody (diluted 1/5000, Jackson Labs) was added and incubated for 1 h at RT before additional washing and addition of TMB. The optical density at 620 nm was read and the values were represented in a graph against the concentration of mAbs.

[13] = molecular target: T9, llama-human c-Met chimera LS2 (aa1-199) (Llama glama; human); test: ELISA, mAb coated at 2 µg/ml, chimera added, streptavidin-HRP
T9 construct: as LS1
Source text: as §1

[14] = molecular target: T10, llama-human c-Met chimera LS3 (aa1-287) (Llama glama; human); test: as above
T10 construct: as LS1
Source text: as §1

[15] = molecular target: T11, llama-human c-Met chimera LS4 (aa1-348) (Llama glama; human); test: as above
T11 construct: as LS1
Source text: as §1

[16] = molecular target: T12, llama-human c-Met chimera LS5 (aa1-448) (Llama glama; human); test: as above
T12 construct: as LS1
Source text: as §1

B1: murine 5D5 antibody (antibody, V domains shown)
VH: QVQLQQSGPELVRPGASVKMSCRASGYTFTSYWLHWVKQRPGQGLEWIGMIDPSNSDTRFNPNFKDKATLNVDRSSNTAYMLLSSLTSADSAVYYCATYGSYVSPLDYWGQGTSVTVSS
VL: DIMMSQSPSSLTVSVGEKVTVSCKSSQSLLYTSSQKNYLAWYQQKPGQSPKLLIYWASTRESGVPDRFTGSGSGTDFTLTITSVKADDLAVYYCQQYYAYPWTFGGGTKLEIK
[1]
  IC50 (read off the curve): ~0.7 nM

B2: 36C4 mAb (antibody, human IgG1, V domains shown)
VH: QVQLVESGPGLVKPSQTLSLTCAVSGGSITTNYYYWSWIRQSPGKGLEWMGVIAYDGSTDYSPSLKSRTSISRDTSKNQFSLQLSSVTPEDTAVYYCARDVRVIATGWATANALDAWGQGTLVTVSS
VL: QSVLTQPPSVSGSPGKTVTISCAGTSSDVGYGNYVSWYQQLPGTAPKLLIFAVSYRASGIPDRFSGSKSGNTAFLTISGLQSEDEADYYCASYRSSNNAAVFGGGTHLTVL
notes: human IgG1 constant domains and human C lambda
[2]
  antibody-induced proliferation of BxPC3 cells (agonism): < 20 % of the proliferation obtained with 75 ng/ml HGF
[3]
  EC50: 0.13 nM
[4]
  EC50: 0.06 µg/mL
[5]
  EC50: 0.068 µg/mL
[6]
  EC50: 0.05 µg/mL
[7]
  EC50: 0.055 µg/mL
[8]
  EC50: 0.047 µg/mL
[9]
  EC50: 0.047 µg/mL
[10]
  EC50: 0.047 µg/mL
[11]
  EC50: 0.045 µg/mL
[12]
  EC50 (read off the curve): ~0.6 nM

B3: 38H10 mAb (antibody, human IgG1, V domains shown)
VH: EVQLVQPGVELRNPGASVKVSCKASGYIFTMNSIDWVRQAPGQGLEWMGRIDPEDGGTKYAQKFQGRVTFTADTSTSTAYVELNSLRSEDTAVYYCARVDDYYLGYDYWGQGTQVTVSS
VL: EIVMTQSPSSVTASAGEKVTINCKSSQSVLWRSNQKNYLAWYQQRLGQSPRLLISWASIRESGVPDRFSGSGSTTDFTLTISSFQPEDAAVYYCQQGYSFPYTFGSGTRLEIK
notes: human IgG1 constant domains and human C kappa
[2]
  antibody-induced proliferation of BxPC3 cells (agonism): < 20 % of the proliferation obtained with 75 ng/ml HGF
[3]
  EC50: 0.19 nM

B4: 48A2 mAb (antibody, human IgG1, V domains shown)
VH: B3 VH
VL: DIVMTQTPTSVTASAGDKVTINCKSSQSVLFSSNQKNYLAWYQQRLGQSPRLLIYWASIRESGVPDRFSGSGSATDFTLTISNFQPEDAAVYYCQQGYSFPYSFGSGTRLEIR
notes: VL-shuffled variant of 38H10; human IgG1 and C kappa
[5]
  EC50: 0.031 µg/mL
[13]
  EC50: 0.034 µg/mL
[14]
  EC50: 0.05 µg/mL
[15]
  EC50: 0.07 µg/mL
[16]
  EC50: 0.05 µg/mL
[8]
  EC50: > 0.04 µg/mL
[9]
  EC50: > 0.04 µg/mL
[10]
  EC50: > 0.04 µg/mL
[11]
  EC50: 0.042 µg/mL

B5: 40B8 mAb (antibody, human IgG1, V domains shown)
VH: EVQLVQPGAELRNPGASVKVSCKASGYTFTNYVIDWVRQAPGQGLEWMGRIDPENGGTRYAQKFQGRVTFTADTSTSTAYVELSNLRSEDTAVYYCARLEDYELAYDYWGQGTQVTVSS
VL: DIVMTQTPSSVTASAGEKVTINCKSSQSVLLSSNQKNYLAWYQQRLGQSPRLLIYWASTRESGVPDRFSGSGSTTDFTLTISSFQPEDAAVYYCQQGVSFPLTFGQGTKVELK
notes: as for B3
[2]
  antibody-induced proliferation of BxPC3 cells (agonism): < 20 % of the proliferation obtained with 75 ng/ml HGF
[3]
  EC50: 0.14 nM
[1]
  IC50 (read off the curve): ~0.07 nM

B6: 20A11 mAb (antibody, human IgG1, V domains shown)
VH: QVQLVESGGGLVQPGGSLRLSCAASGFTFDDYAMSWVRQAPGKGLEWVSAISWNGSSTYYAESMKGRFTISRDNAKNTLYLQMNSLKSEDTAVYYCAKDLIGSHDYWGQGTQVTVSS
VL: QAVLTQPPSVSGTLGKTLTISCAGTSSDVGYGNYVSWYQQLPGTAPKLLIYAVSTRASGIPDRFSGSKSGNTASLTISGLQSEDEADYYCASYRSSNNYAFGAGTKLTVL
notes: as for B2
[3]
  EC50: 4.3 nM

B7: 13E6 mAb (antibody, human IgG1, V domains shown)
VH: QVQLQESGGDLVQPGGSLRLSCAASGFTFDDYVMNWVRQAPGKGLEWISAINWNGGSTYYAESMKGRFTISRDNAKNTLYLQMYSLQSDDTAVYYCVKDTVVSGNGYWGQGTQVTVSS
VL: QSVLTQPPSVSGTLGKTVTISCAGTSSDIGDYNYVSWYQQLPGTAPKLLIYDVNKRASGIPDRFSGSKSGNTASLSISGLQSEDEADYYCASYRSRNDYAFGGGTKLTVL
notes: as for B2
[3]
  EC50: 0.19 nM
[12]
  EC50 (read off the curve): ~1 nM

B8: 12G4 mAb (antibody, human IgG1, V domains shown)
VH: QLQLVESGGGMAQPGGSLKLSCAASGFTFDDYAMTWVRQAPGKGLEWLSTISWNDINTYYAESMKDRFTISRDNAKNTLYLQMNSLESEDTAVYYCAKRRDNYYGTSGEYDYWGQGTQVTVSS
VL: B7 VL with V3A, D31N, D52E, A57P, R96S, D98N, Y99V, A100V
notes: llama VH/V lambda fused to human IgG1 constant domains and human C lambda
[3]
  EC50: 0.42 nM
